Substrate in the series: O=[N+]([O-])c1ccc(O[C@@H]2O[C@H](CO)[C@@H](O)[C@H](O)[C@H]2O)cc1
Kind of series: purified protein. The following applies: free enzyme, 100 mM citrate phosphate pH 6.5, 50 °C, pNPG 0.05–25 mM.

Broadly, the Km is the substrate concentration at which the rate is half of its maximum. A word on the Vmax: it is the top rate of the reaction or transport when substrate is in excess.

B1: β-Glucosidase from Thermotoga maritima (bgl) (Thermotoga maritima MSB8) (protein)
chain: MNVKKFPEGFLWGVATASYQIEGSPLADGAGMSIWHTFSHTPGNVKNGDTGDVACDHYNRWKEDIEIIEKLGVKAYRFSISWPRILPEGTGRVNQKGLDFYNRIIDTLLEKGITPFVTIYHWDLPFALQLKGGWANREIADWFAEYSRVLFENFGDRVKNWITLNEPWVVAIVGHLYGVHAPGMRDIYVAFRAVHNLLRAHARAVKVFRETVKDGKIGIVFNNGYFEPASEKEEDIRAVRFMHQFNNYPLFLNPIYRGDYPELVLEFAREYLPENYKDDMSEIQEKIDFVGLNYYSGHLVKFDPDAPAKVSFVERDLPKTAMGWEIVPEGIYWILKKVKEEYNPPEVYITENGAAFDDVVSEDGRVHDQNRIDYLKAHIGQAWKAIQEGVPLKGYFVWSLLDNFEWAEGYSKRFGIVYVDYSTQKRIVKDSGYWYSNVVKNNGLED
Take B1: the Km was 220 ± 80 µM and the Vmax is 7.27 µM/min.

The values above are taken from paper PMC9824680.
